In patent US20250145694A1 (GUANGDONG FEIPENG BIOLOGICAL, published 2025):
Substitutions are numbered along the chain they refer to.

B1: WT 1-1 (antibody, V domains shown)
VH: QVQLQQSGTELAKPGASVKFSCKASDYTFSTYWMYWIKQRPGQGLEWIGYINPSTGHTEYNQKFKDKATLTADKSSSTAYMQLNSLTSEDSAVYYCARRYYGPFAMDYWGQGTSVTVSS
VL: EIFLTQSPAIMSASPGEKVTMTCSASSSVSYAHWYQQKSGTSPKRWIYDSSKIASGIPVRFSGSGSGTSYSLTISSMEAEDAATYYCQNWSTNPYTFGGGTKLEIKR
B2: WT 1-5 (antibody, V domains shown)
VH: B1 VH with T31S, I51L, R99K, Y101W
VL: B1 VL
B3: Mutation 1-32 (antibody)
heavy: EVQMVESGGGLLKPGGSLKLSCAASGFTYSNYAMSWVRQTPEKRLEWVATISSGGSYSYYPDSVKGRFTISRDNAKNTLYLQMLSLRSEDTAMYYCARRDNYYGSSFMDYWGQGSSVTVSSAKTTPPSVYPLAPGSAAQTNSMVTLGCLVKGYFPEPVTVTWNSGSLSSGVHTFPAVLQSDLYTLSSSVTVPSSTWPSQTVTCNVAHPASSTKVDKKIVPRDCGCKPCICTVPEVSSVFIFPPKPKDVLTITLTPKVTCVVVDISKDDPEVQFSWFVDDVEVHTAQTKPREEQFNSTFRSVSELPIMHQDWLNGKEFKCRVNSAAFPAPIEKTISKTKGRPKAPQVYTIPPPKEQMAKDKVSLTCMITNFFPEDITVEWQWNGQPAENYKNTQPIMDTDGSYFVYSKLNVQKSNWEAGNTFTCSVLHEGLHNHHTEKSLSHSPG
light: DIQMTQTSSSLSASLGDRVTISCRASQDITNYLNWYQQKPDGTIKLLIYYTSRIHSGVSSRFSGSGSGTDYSLTISNLEQEDIATYFCQQGNTIPLTFDTGTKLELKRADAAPTVSIFPPSSEQLTSGGASVVCFLNNFYPKDINVKWKIDGSERQNGVLNSWTDQDSKDSTYSMSSTLTLTKDEYERHNSYTCEATHKTSTSPIVKSFNRNEC
notes: assembled FR/CDR/constant
B4: Mutation 1-38 (antibody)
heavy: B3 heavy with Y59F, Y103P, S106T
light: B3 light with I54L
notes: assembled FR/CDR/constant
B5: Mutation 1-40 (antibody)
heavy: B3 heavy with Y103F, S106T
light: B3 light with D28E, I94L
notes: assembled FR/CDR/constant; Same printed sites as Mutation 1-4
B6: Mutation 1-47 (antibody)
heavy: B3 heavy with Y29F, Y103P
light: B3 light with I94L
notes: assembled FR/CDR/constant
B7: Mutation 1-43 (antibody)
heavy: B3 heavy with Y29F, Y103P, S106T
light: B3 light with I54L
notes: assembled FR/CDR/constant
B8: Mutation 1-41 (antibody)
heavy: B3 heavy with Y29F, Y59F, Y103F
light: B3 light with D28E, I54L, I94L
notes: assembled FR/CDR/constant
B9: Mutation 1-48 (antibody)
heavy: B3 heavy with Y103P, S106T
light: B3 light with D28E
notes: assembled FR/CDR/constant
B10: Mutation 1-36 (antibody)
heavy: B3 heavy with S106T
light: B3 light with D28E, I94L
notes: assembled FR/CDR/constant
B11: Mutation 1-35 (antibody)
heavy: B3 heavy with Y29F, Y103F, S106T
light: B3 light with I54L, N92H, I94L
notes: assembled FR/CDR/constant
B12: Mutation 1-44 (antibody)
heavy: B3 heavy with Y103P
light: B3 light with I54L, N92H, I94L
notes: assembled FR/CDR/constant
B13: Mutation 1-46 (antibody)
heavy: B3 heavy with Y59F, S106T
light: B3 light with D28E, I54L, N92H, I94L
notes: assembled FR/CDR/constant
B14: Mutation 1-33 (antibody)
heavy: B3 heavy with Y29F, Y59F, Y103P, S106T
light: B3 light with I54L, N92H
notes: assembled FR/CDR/constant
B15: Mutation 1-39 (antibody)
heavy: B3 heavy with Y29F, Y103P
light: B3 light with N92H
notes: assembled FR/CDR/constant
B16: Mutation 1-45 (antibody)
heavy: B3 heavy with Y29F, Y59F, Y103F, S106T
light: B3 light with D28E
notes: assembled FR/CDR/constant
B17: Mutation 1-42 (antibody)
heavy: B3 heavy with Y59F
light: B3 light with D28E, N92H
notes: assembled FR/CDR/constant
B18: Mutation 1-37 (antibody)
heavy: B3 heavy with Y29F, Y59F
light: B3 light with I54L, N92H, I94L
notes: assembled FR/CDR/constant
B19: Mutation 1-34 (antibody)
heavy: B3 heavy with Y59F, Y103P
light: B3 light
notes: assembled FR/CDR/constant

Molecular target: T1, CTNI quality control recombinant antigen (human, UniProt P19429 1-210, limits assumed)
T1 construct: Recombinant antigen produced by the applicant; also called CTNI quality control recombinant protein (antigen produced by the company); cardiac troponin I
T1 sequence (P19429 whole entry): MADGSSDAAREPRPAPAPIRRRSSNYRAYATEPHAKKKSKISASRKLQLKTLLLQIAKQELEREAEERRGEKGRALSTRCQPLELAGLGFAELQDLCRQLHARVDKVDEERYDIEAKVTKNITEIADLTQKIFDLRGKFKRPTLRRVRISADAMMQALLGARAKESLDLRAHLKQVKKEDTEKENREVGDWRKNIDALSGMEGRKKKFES
Experiment: BLI, antibody on AMC sensor, cTnI in solution
Procedure: With an AMC sensor, the purified antibody was diluted to 10 μg/ml with PBST, and CTNI quality control recombinant protein (antigen produced by the company) was gradient diluted with PBST to 769.2 nmol/ml, 384.6 nmol/ml, 192.3 nmol/ml, 96.2 nmol/ml, 48.1 nmol/ml, 24 nmol/ml, 12 nmol/ml, and 0 nmol/ml.

Row | Binder | Kd | koff | kon
1 | B1 | 33.3 nM | 0.000128 s⁻¹ | 3840 M⁻¹ s⁻¹
2 | B2 | 8.35 nM | 0.000743 s⁻¹ | 89000 M⁻¹ s⁻¹
3 | B3 | 8.38 nM | 0.000266 s⁻¹ | 31700 M⁻¹ s⁻¹
4 | B4 | 7.74 nM | 0.00057 s⁻¹ | 73700 M⁻¹ s⁻¹
5 | B5 | 3.12 nM | 0.000262 s⁻¹ | 83900 M⁻¹ s⁻¹
6 | B6 | 2.87 nM | 9.47e-05 s⁻¹ | 33000 M⁻¹ s⁻¹
7 | B7 | 5.37 nM | 0.000248 s⁻¹ | 46100 M⁻¹ s⁻¹
8 | B8 | 9.24 nM | 0.000774 s⁻¹ | 83800 M⁻¹ s⁻¹
9 | B9 | 7.04 nM | 0.000583 s⁻¹ | 82800 M⁻¹ s⁻¹
10 | B10 | 9.27 nM | 0.000774 s⁻¹ | 83500 M⁻¹ s⁻¹
11 | B11 | 5.25 nM | 0.000161 s⁻¹ | 30700 M⁻¹ s⁻¹
12 | B12 | 3.53 nM | 0.000171 s⁻¹ | 48500 M⁻¹ s⁻¹
13 | B13 | 4.93 nM | 0.000274 s⁻¹ | 55600 M⁻¹ s⁻¹
14 | B14 | 0.979 nM | 0.000521 s⁻¹ | 532000 M⁻¹ s⁻¹
15 | B15 | 6.25 nM | 0.000509 s⁻¹ | 81400 M⁻¹ s⁻¹
16 | B16 | 9.02 nM | 0.00019 s⁻¹ | 21100 M⁻¹ s⁻¹
17 | B17 | 3.09 nM | 0.000109 s⁻¹ | 35200 M⁻¹ s⁻¹
18 | B18 | 4.2 nM | 0.000299 s⁻¹ | 71000 M⁻¹ s⁻¹
19 | B19 | 8.44 nM | 0.000255 s⁻¹ | 30200 M⁻¹ s⁻¹
